Assay results published in patent US20230272067A1 (HUAHUI HEALTH, published 2023).
Positions count from the first letter of the chain named. Names and notes keep the numbering of the source.

What was measured:
[1] = target: T1, extracellular domain (ECD) of mouse TIGIT (mouse, UniProt P86176 29-148, biotinylated (site not stated)); experiment: SPR (Biacore T200), multi-cycle kinetics, FIG. 11 (hTIGIT or mTIGIT)
T1 construct: extracellular domain; Used captured on streptavidin in ELISA and as analyte in SPR (extracellular domain); also called mTIGIT-ECD; mTIGIT-ECD-Biotin; not shown: expressed as a biotinylated recombinant fusion protein
T1 sequence (looked up): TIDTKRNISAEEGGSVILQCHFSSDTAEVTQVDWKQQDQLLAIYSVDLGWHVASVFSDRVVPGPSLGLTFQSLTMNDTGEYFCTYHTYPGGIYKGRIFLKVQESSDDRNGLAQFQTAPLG

[2] = target: T2, extracellular domain (ECD) of human TIGIT (human, UniProt Q495A1 22-141, biotinylated (site not stated)); experiment: as above
T2 construct: extracellular domain; Used captured on streptavidin in ELISA and as analyte in SPR (extracellular domain); also called hTIGIT-ECD; hTIGIT-ECD-Biotin; not shown: expressed as a biotinylated recombinant fusion protein
T2 sequence (looked up): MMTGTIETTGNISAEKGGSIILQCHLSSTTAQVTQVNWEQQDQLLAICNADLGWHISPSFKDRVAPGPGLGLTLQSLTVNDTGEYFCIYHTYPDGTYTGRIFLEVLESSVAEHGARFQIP

[3] = target: T3, full-length human TIGIT expressed on cells (human, UniProt Q495A1 22-244); experiment: FACS on CHO cells transiently expressing full-length hTIGIT, hIgG1 format
T3 construct: whole, on cells; also called CHO-hTIGIT; YTS-hTIGIT
T3 sequence (looked up): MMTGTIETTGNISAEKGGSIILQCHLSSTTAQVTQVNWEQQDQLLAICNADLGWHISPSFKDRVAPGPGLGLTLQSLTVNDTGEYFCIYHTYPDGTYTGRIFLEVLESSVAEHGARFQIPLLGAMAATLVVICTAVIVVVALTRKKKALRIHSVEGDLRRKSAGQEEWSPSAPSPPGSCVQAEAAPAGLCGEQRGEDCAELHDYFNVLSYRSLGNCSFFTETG
Method: (§1) For epitope mapping, chimeras of human TIGIT IgV domain and N-terminal IgV domain D1 of hCD155 were constructed by replacing residues in the extracellular regions of hTIGIT with the corresponding residues from hCD155 D 1. These chimera and variants were expressed by transient transfection of CHO or 293T cells, their cell surface expression levels were assessed by using a mAb GC33 recognizing the N-terminal tag fused to each of the chimera and variant or hCD155-hFc (4). The binding of testing Abs in human IgG1 (hIgG1) format or hCD155-hFc to these transfectants were detected by using goat anti-human IgG-FITC antibody (Thermo Fisher Scientific). The cells were then analyzed with FACS machine (BD Accuri™ C6).
By transfecting CHO cells with these hTIGIT/hCD155 chimeras or hTIGIT variants, and by subsequently analyzing T4, CS19ME3-23, and CS19ME3-30-N Abs binding to these CHO transfectant cells by FACS, it was identified that the FG Loop in the extracellular IgV domain of hTIGIT is critical for these Abs′ binding (FIG. 12B). […] Thus, by binding to the FG Loop, these three Abs block the binding of TIGIT to its ligand CD155. Due to the high amino acid sequence homology in this loop between hTIGIT and mTIGIT, these three Abs are able to cross-react with both of them.

[4] = target: T4, hTIGIT variant S78A (full length, on 293T cells) (human, UniProt Q495A1 22-244); experiment: FACS on 293T cells transiently expressing the variant
T4 construct: whole, on cells
T4 sequence (looked up): T3 sequence (looked up) with S57A
Method: as §1
(§2) To investigate the role of these residues in the binding of anti-TIGIT antibodies of the present disclosure to hTIGIT, three hTIGIT variants each having a single point mutation selected from S78A, […], and K82A were generated. By transfecting 293T cells with these hTIGIT variants and by subsequently analyzing CS19ME3-30-N Abs binding to these 293T transfectant cells by FACS, it was identified that none of the three residues in the extracellular IgV domain of hTIGIT is critical for these Abs′ binding (FIG. 12C).

[5] = target: T5, hTIGIT variant S80A (full length, on 293T cells) (human, UniProt Q495A1 22-244); experiment: as above
T5 construct: whole, on cells; also called 580A [sic]
T5 sequence (looked up): T3 sequence (looked up) with S59A
Method: as §1, §2

[6] = target: T6, hTIGIT variant K82A (full length, on 293T cells) (human, UniProt Q495A1 22-244); experiment: as above
T6 construct: whole, on cells
T6 sequence (looked up): T3 sequence (looked up) with K61A
Method: as §1, §2

[7] = target: T1, extracellular domain (ECD) of mouse …; experiment: SPR (Biacore T200), multi-cycle kinetics
[8] = target: T2, extracellular domain (ECD) of human …; experiment: SPR (Biacore T200), multi-cycle kinetics

Measured: binding result

B1: CS19ME3-23 (antibody, human IgG1, V domains shown)
VH: EVQLLESGGGLVQPGGSLRLSCAASGFTFSSYAMHWVRQAPGKGLEWVAVISYDGSNKYYADSVKGRFTISRDNSKNTLYLQMNSLRAEDTAVYYCATLEGGGRYYDFWSADYWGQGTLVTVSS
VL: QSALTQPRSVSGSPGQSVTISCTGTSSDVGGYNFVSWYQQHPGKAPKLLIYAVSKRPSGVPDRFSGSKSGNTASLTISGLQAEDEADYYCSSYSSESTRVVFGGGTKLTVL
notes: tested as human IgG1 (hIgG1); also called CS19ME3-23 Ab
binds: [1] | [2] | [3]

B2: CS19ME3-30-N (antibody, human IgG1, V domains shown)
VH: B1 VH with E1Q, L5V, L11V, G16R
VL: B1 VL with K55N
notes: tested as human IgG1 (hIgG1); also called CS19ME3-30-N Ab
binds: [4] | [5] | [6] | [1] | [2] | [3]

B3: T4M (antibody, V domains shown)
VH: QVQLQQWGAGLLKPSETLSLTCAVYGGSFNDYYWTWIRQAPGKGLEWIGEITHSGSADYNPSLKSRVTISVDTSKNQFSLKLRSVTAADTAVYYCARGLKLFRWKKTTVTTFPPYYYGMDVWGQGTTVTVSS
VL: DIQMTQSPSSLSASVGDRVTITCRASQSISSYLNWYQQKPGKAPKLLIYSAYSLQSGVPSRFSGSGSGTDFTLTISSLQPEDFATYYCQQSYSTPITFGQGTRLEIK
notes: T4 Vk with S50 and Y52 incorporated; IgG format captured by anti-hFc in SPR; also called T4M Ab
binds: [7] | [8]
